Assay results as given in patent US20260125472A1 (HEFEI TG IMMUNOPHARMA, published 2026).

How the values were obtained:
PDL1 protein [1] = target: T1, PDL1 protein (UniProt Q9NZQ7 19-238); test: ELISA, coated PDL1 protein, OD450 [panels A, B]
T1 construct: Bought recombinant protein
Experimental: (3) PDL1 protein (purchased from Acro) was diluted to 2 μg/ml with PBS buffer, added to a 96-well plate at a volume of 100 μL/well, and placed at 4° C. overnight. The PBS buffer in the 96-well plate was aspirated, and the plate was washed 6 times with PBST (pH 7.2 PBS containing 0.10% Tween 20) buffer. Then, PBS/10% BSA was added at 200 μL/well and incubated at 37° C. for 2 h for blocking. The blocking solution was removed, and the plate was washed six times with PBST. Then, the to-be-tested bispecific antibodies serially diluted with PBST/0.05% BSA, Cross3×PDL1, Cross303×PDL1, Cross307×PDL1, Cross308×PDL1, Cross309×PDL1, Cross310×PDL1, Cross311×PDL1, Cross312×PDL1, Cross313×PDL1, Cross314×PDL1, Cross316×PDL1, Cross317×PDL1, Cross318×PDL1, Cross323×PDL1, Cross325×PDL1, Cross326×PDL1, and control IgG1LALA (purchased from Bio-Tech) were added at 100 μL/well, and incubated at 37° C. for 1 h. The reaction system was removed, and the plate was washed 6 times with PBST. Then, the cells were incubated at 37° C. for 1 h with HRP (horseradish peroxidase)-labeled anti-human secondary antibody (Fab specific) (purchased from Sigma) serially diluted with PBST/0.05% BSA at 100 μL/well. After the plate was washed six times with PBST, TMB (tetramethylbenzidine) was added at 80 μL/well and incubated at room temperature for 3 min. […] The absorbance was read at 450 nm using a microplate reader.

[2] = target: T2, PDL1 on A-375 melanoma cells, HCT-15 colorectal cancer cells and A549 lung cancer cells (UniProt Q9NZQ7 19-290, limits assumed); test: flow cytometry, A549 cells, MFI [panel B]
T2 construct: whole, on cells
How it was run: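 Cells were blocked with goat serum at 4° C for 30 min, then incubated with serially diluted bispecific antibodies or hIgG1LALA control at 4° C for 30 min. Bound antibody was detected with Alexa-647 anti-human IgG (4° C, 30 min, dark) and read by flow cytometry.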

CD3 on CD8 T cells = target: T3, CD3 on CD8 T cells (Homo sapiens (Human), UniProt P07766 23-207); test: flow cytometry, CD8 T cells in PBMCs, binding ratio % [panel A]
T3 construct: Native CD3 complex on CD8 T cells among PBMCs; also called T cells (PBMCs gated with anti-human CD8 antibody)
Experimental: (1) PBMCs were diluted to 2×10⁶/ml with PBS and added to a 1.5 ml EP tube at 100 μl/tube, goat serum was added thereto at 10 μl/tube. The cells were blocked at 4° C. for 30 min. The serially diluted bispecific antibodies, Cross3×Trop2, Cross303×Trop2, Cross307×Trop2, Cross308×Trop2, Cross309×Trop2, Cross310×Trop2, Cross311×Trop2, Cross312×Trop2, Cross313×Trop2, Cross314×Trop2, Cross316×Trop2, Cross317×Trop2, Cross318×Trop2, Cross323×Trop2, Cross325×Trop2, Cross326×Trop2, Cross3×PDL1, Cross313×PDL1, Cross316×PDL1, Cross325×PDL1, and control hIgG1LALA (purchased from Bio-Tech) were added and incubated at 4° C. for 30 min. 1 ml of PBS was added to the EP tube, followed by centrifugation at 3500 rpm for 5 min at 4° C. The supernatant was discarded, and the system was washed again with PBS. After centrifugation, the supernatant was discarded, and the cells were resuspended with PBS at 100 μl/tube. 1 μl/tube Alexa-647-labeled goat anti-human IgG secondary antibody (purchased from Jackson lab) and 0.5 μl/tube PerCP-Cy5.5-labeled anti-human CD8 antibody were added and incubated at 4° C. in the dark for 30 min. The cells were washed twice with PBS. After centrifugation, the supernatant was discarded. The cells were resuspended with 200 μl/tube of PBS and assay is performed by flow cytometry.

PDL1 protein [3] = target: T1, PDL1 protein; test: ELISA, coated PDL1 protein, OD450 [panel A]
How it was run: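 PDL1 protein coated at 2 μg/ml overnight at 4 °C, blocked with PBS/10% BSA; serially diluted bispecific antibodies or control IgG1LALA bound 1 h at 37 °C. Detection with HRP anti-human Fab secondary antibody and TMB for 3 min, stopped with sulfuric acid, absorbance at 450 nm.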

CD3E&D protein = target: T4, CD3E&D protein (UniProt P04234 22-105); test: ELISA, coated CD3E&D protein, OD450 [panel A]
T4 construct: Purchased from Acro; also called CD3 E&D antigens; CD3E&D antigen protein
Description: In this example, the binding properties of the CD3×Trop2 and CD3×PDL1 bispecific antibody (the production method and the amino acid sequences of the heavy and light chains were shown in Example 1) were detected by using ELISA. The CD3E&D, Trop2, or PDL1 protein was coated onto 96-well plates by inventors, and the strength of the signal after the addition of the antibody was used to determine the binding properties of the antibody and the corresponding protein.
(1) CD3E&D protein (purchased from Acro) was diluted to 2 μg/ml with PBS buffer, added to a 96-well plate at a volume of 100 μL/well, and placed at 4° C. overnight. The PBS buffer in the 96-well plate was aspirated, and the plate was washed 6 times with PBST (pH 7.2 PBS containing 0.1% Tween 20) buffer. Then, 200 μL/well PBS/10% BSA was added and incubated at 37° C. for 2 h for blocking. The blocking solution was removed, and the plate was washed 6 times with PBST. […] The absorbance was read at 450 nm using a microplate reader.

T2 sequence (Q9NZQ7 19-290 limits assumed): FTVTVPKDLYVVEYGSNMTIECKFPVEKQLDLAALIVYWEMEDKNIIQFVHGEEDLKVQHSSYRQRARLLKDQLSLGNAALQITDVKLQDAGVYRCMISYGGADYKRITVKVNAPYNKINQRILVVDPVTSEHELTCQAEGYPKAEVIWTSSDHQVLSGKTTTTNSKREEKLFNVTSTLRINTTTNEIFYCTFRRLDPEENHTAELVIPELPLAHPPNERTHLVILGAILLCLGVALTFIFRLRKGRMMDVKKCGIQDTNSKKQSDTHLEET
T1 sequence (Q9NZQ7 19-238 limits assumed): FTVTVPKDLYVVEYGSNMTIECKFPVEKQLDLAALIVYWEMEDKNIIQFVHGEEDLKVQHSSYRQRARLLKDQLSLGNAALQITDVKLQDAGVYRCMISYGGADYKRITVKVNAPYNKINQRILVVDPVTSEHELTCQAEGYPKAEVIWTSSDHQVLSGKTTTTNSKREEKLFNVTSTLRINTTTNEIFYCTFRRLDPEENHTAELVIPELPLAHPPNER
T4 sequence (chain, as listed by the source limits assumed, chain 1 of 2): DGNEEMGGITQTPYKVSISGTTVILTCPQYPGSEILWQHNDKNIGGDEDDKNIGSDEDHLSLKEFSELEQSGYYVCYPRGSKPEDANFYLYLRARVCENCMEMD
T4 sequence (P04234 22-105 limits assumed, chain 2 of 2): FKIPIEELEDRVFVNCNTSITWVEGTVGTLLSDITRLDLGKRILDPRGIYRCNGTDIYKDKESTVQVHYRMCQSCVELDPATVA
T3 sequence (P07766 23-207 limits assumed): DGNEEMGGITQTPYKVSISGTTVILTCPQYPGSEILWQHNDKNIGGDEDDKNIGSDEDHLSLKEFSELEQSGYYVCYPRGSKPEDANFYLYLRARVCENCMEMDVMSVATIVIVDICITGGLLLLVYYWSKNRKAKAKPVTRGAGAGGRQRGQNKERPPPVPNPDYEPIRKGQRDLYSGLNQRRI

Binder | EC50 (read off the curve) (PDL1 protein [1]) [µg/mL] | EC50 (read off the curve) [2] [µg/mL] | EC50 (read off the curve) (CD3 on CD8 T cells) [µg/mL] | EC50 (read off the curve) (PDL1 protein [3]) [µg/mL] | EC50 (read off the curve) (CD3E&D protein) [µg/mL]
Cross3×PDL1 (bispecific antibody, human IgG1, kappa, L234A L235A, also called parent Cross3×PDL1 bispecific antibody) scFv: not shown heavy: QVQLVQSGAEVKKPGASVKVSCKASGYSFTGYYMHWVRQAPGQGLEWIGRINPYNGATTYSQNFKDRATMTVDTSISTAYMELSRLRSDDTAVYYCVPTGMGYFLMDYWGQGTLVTVSSASTKGPSVFPLAPSSKSTSGGTAALGCLVKDYFPEPVTVSWNSGALTSGVHTFPAVLQSSGLYSLSSVVTVPSSSLGTQTYICNVNHKPSNTKVDKKVEPKSCDKTHTCPPCPAPEAAGGPSVFLFPPKPKDTLMISRTPEVTCVVVDVSHEDPEVKFNWYVDGVEVHNAKTKPREEQYNSTYRVVSVLTVLHQDWLNGKEYKCKVSNKALPAPIEKTISKAKGQPREPQVCTLPPSREEMTKNQVSLSCAVKGFYPSDIAVEWESNGQPENNYKTTPPVLDSDGSFFLVSKLTVDKSRWQQGNVFSCSVMHEALHNHYTQKSLSLSPGK light: DIQLTQSPSFLSASVGDRVTITCKASQDVGSAVVWYQQKPGKAPKLLIYWASTRHTGVPSRFSGSGSGTEFTLTISSLQPEDFATYFCQQFTSYPTFGQGTKLEIKRTVAAPSVFIFPPSDEQLKSGTASVVCLLNNFYPREAKVQWKVDNALQSGNSQESVTEQDSKDSTYSLSSTLTLSKADYEKHKVYACEVTHQGLSSPVTKSFNRGEC | ~0.2 | ~1 | – | – | –
Cross316×PDL1 (bispecific antibody, human IgG1, kappa, L234A L235A) scFv: not shown heavy: QVQLVQSGAEVKKPGASVKVSCKASGYSFTGYYMHWVRQAPGQGLEWIGRINPYNGATTYSQNFKDRATMTVDTSISTAYMELSRLRSDDTAVYYCVPTGMGYFLMDYWGQGTLVTVSSASTKGPSVFPLAPSSKSTSGGTAALGCLVKDYFPEPVTVSWNSGALTSGVHTFPAVLQSSGLYSLSSVVTVPSSSLGTQTYICNVNHKPSNTKVDKKVEPKSCDKTHTCPPCPAPEAAGGPSVFLFPPKPKDTLMISRTPEVTCVVVDVSHEDPEVKFNWYVDGVEVHNAKTKPREEQYNSTYRVVSVLTVLHQDWLNGKEYKCKVSNKALPAPIEKTISKAKGQPREPQVCTLPPSREEMTKNQVSLSCAVKGFYPSDIAVEWESNGQPENNYKTTPPVLDSDGSFFLVSKLTVDKSRWQQGNVFSCSVMHEALHNHYTQKSLSLSPGK light: DIQLTQSPSFLSASVGDRVTITCKASQDVGSAVVWYQQKPGKAPKLLIYWASTRHTGVPSRFSGSGSGTEFTLTISSLQPEDFATYFCQQFTSYPTFGQGTKLEIKRTVAAPSVFIFPPSDEQLKSGTASVVCLLNNFYPREAKVQWKVDNALQSGNSQESVTEQDSKDSTYSLSSTLTLSKADYEKHKVYACEVTHQGLSSPVTKSFNRGEC | – | ~1 | ~0.2 | ~0.2 | ~0.8
